B1: TPR t1 (parent)
chain: GACCAAUCUGCCCUCAGAGCUCGAGAACAUCUUCGGAUGCAGAGGAGGCAGGCUUCGGUGGCGCGAUAGCGCCAACGUCCUCAACCUCCAAUGCAUCCCACCACAUGAUGAUGCCUGAAGAGCCUUGGUUUUUUG

Variants of: B1
Experiment: polymerase ribozyme fitness, log enrichment relative to wild type (log ratio); higher = more active; in vitro selection for triplet polymerase activity
Method in brief: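 Each subunit of a heterodimeric triplet polymerase ribozyme was mutagenized into a library by PCR, transcribed, and subjected to one round of in vitro selection, run in triplicate. Libraries were annealed with a biotinylated primer, the partner subunit and triplets, incubated frozen at −7 °C, and extended constructs were gel-excised, captured on streptavidin beads and recovered by RT-PCR. Input and output libraries were sequenced on Illumina, keeping genotypes with ≥10 input reads and ≥1 read per output. Fitness is log base 2 of genotype enrichment divided by wild-type enrichment, from inverse-variance-weighted replicate averages.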

Row | Variant | polymerase ribozyme fitness (log ratio)
1 | GACGAAUCUGCCCUCAGAGCUCGAGAACAUCUUCGGAUGCAGAGGAGGCAGGCUUCGGUGGCGUGAUAGCGCCAACGUCCUCAACCUCCAAUGCAUCCCACCACAUGAUGAUGCCUGAAGAGCCUUGGUUUUUUG | -2.5
2 | GACAAAACUGCCCUCAGAGCUCGAGAACAUCUUCGGAUGCAGAGGAGGCAGGCUUCGGUGGCGCGAUAGCGCCAACGUCCUCAACCUCCAAUGCAUCCCACCACAUGAUGAUGCCUGAAGAGCCUUGGUUUUUUG | -0.986
3 | GACGAAUCUGCCCUCAGAGCUCGAGAACAUCUUCGGAUGCAGAGGAGGCAGGCUUCGGUGGCGCGAUAGCGCCAACGUCCUCAACCUCCAAUGCAUCCCACCACAUGAUGUUGCCUGAAGAGCCUUGGUUUUUUG | -3.42
4 | GACAAAUCUGCCCUCAGAGCUCGAGAACAUCUUCGGAUGCAGAGGAGGCAGGCUUCGGUGGCGCGAUAUCGCCAACGUCCUCAACCUCCAAUGCAUCCCACCACAUGAUGAUGCCUGAAGAGCCUUGGUUUUUUG | -0.0821
5 | GACAAAUCUGCCCUCAGAGCUCGAGAACAUCUUCGGAUGCAGAGGAGGCAGGCUUCGGUGGCGCGAUACCGCCAACGUCCUCAACCUCCAAUGCAUCCCACCACAUGAUGAUGCCUGAAGAGCCUUGGUUUUUUG | -3.61
6 | GACGAAUCUGCCCUCAGAGCUUAAGAACAUCUUCGGAUGCAGAGGAGGCAGGCUUCGGUGGCGCGUUAGCGCCAACGUCCUCGACCUCCAAUGCAUGCUACCACAAGAUGAUUCCUGAAGAGCAUUGGUUUUUUG | -7.47
7 | GACAAAUCUGCCCUCAGAGCUCGAGAACAUCUUCGGAUGCAGAGGAGGCAGGCUUCGGUGGCGCGAUAGCGCCAACGUCCUCAACCUCCAAUGCAUCCCACCACAUGAUGAUGCCUCAAGAGCCUUGGUUUUUUG | -4.54
8 | GACGAAUCUGCCCUCAGAGCUCGAGAACAUCUUCGGAUGCAGAGGAGGCAGGCUUCGGUGGCGCGAUAGCGCCAACGUCCUCAACCUCCUAUGCAUCCCCCCACAUGAUGAUGCCUGAAGAGCUUUGGUUUCUUG | -4.88
9 | GACAAAUCUGCCCUCAGAGCUCGAGAACAUCUUCGGAUGCAGAGGAGGCAGGCUUCGGUGCCGCGAUAGCGCCAACGUGCUCAACCUCCAAUGCAUCCCACCACAUGAUGAUGCCUGAAGAGCCUUGGUUUUUUG | -3.95
10 | GACGAAUCUGCCCUCAGAGGUCGAGAACAUCUUCGGAUGCAGAGGAGGCAGGCUUCGGUGUCGCGAUAGCGCCAACGUCCUCAACCUCCAAUGCAUCCCACCACAUGAUGAUGCCUAAAGAGCCUUGGUUUUUUG | -4.76
11 | GACAAAUCUGCCCUCAGAGCUCGAGAACAUCUUCGGAUGCAGAGGAGGCAGGCUCCGGUGGCGCGAUAGCGCCAACGUCCUCAACCUCCAAUGCAUCCCACCACAUGAUGAUGCCUGAAGAGCCUUGGUUUUUUG | -2.5
12 | GACAAAUCUGCCCUCAGAGCGCGAGAACAUCUUCGGAUGCAGAUGAGGCAGGCUUCGGUGGCGCGAUAGCGCCAACGUCCUAAACCUCCAAUGCAUCCCACCACAUGAUGAUGCCUGAAGAGCGUUGGUUUUUUG | -3.89
13 | GACGAAUCUGCCCUCAGAGCUCGAGGACAUCUUCGGAUGCAGAGGAGGCAGGCUUCGGUGGCGCGAUAGCGCCAACGCCCUCAACCUCCAAUGCAUCCUACCACAUGAUGAUGGCUGAAGAGCCUUGGUUUCUUG | -5.4
14 | GACAAAUCUGCCCUCAGAGCUCGAGAACAUCUUCGGAUGCAGAGGAGGCAGGCUUCGGUAGCGCGAUAGCGCCAACGCCCUCAACCUCCAAUGCAUCCCACCACAUGAUGAUGCCUGAAGAGCCUUGGUUUUUUG | -2.08
15 | GACGAAUCUGCCCUCAGAGCUCGAGAACAUCUUCGGAUGCAGAGGAGGCAGGCUUCGGUGGCGCGAUAGCGGCAACGUCCUCAACCUCCAAUGCAUCCCACCACAUGAUGAUGCCUGAAGAGCCUUGGUUUUUUG | -1.74
16 | GACGAAUCUGCCCUCAGAGCUCGAGAACAUCUUCGGAUGCUGAGGCGGCAGGCUUCGGUGGCGCGAUAGCGCCAACGUCCUCAACCGCCAUUGCAUCCCACCACAUGAUGAUGCAUGAAGAGCCUUGGUUUUUUU | -4.36
17 | GACGAAUCUGCCCUCAGAGCUCGAGAACAUCUUCGGAUGGAGAGGAGGCAGGCUUCGGUGGCGCGAUAGCGCCAACGUCCUCAACCUCCAAUGCAUCCCACCACAUGAUGAUGCUUGAAGAGCCUUGGUUUUUUG | -3.42
18 | GACGAAUGUGCCCUCAGAGCUCGAGGACAUCUUCGGAUGCAGAGGAGGCAGGCUUCGGUGGCGCGAUAGCACCAACGUCCUCAACCUCCAAUGCAUCCCACCACAUGAUGAUGCCUGAAUAGCCUUGGUUUUUUG | -1.19
19 | GACGAAUCUGCCCUCAGAGCUCGAGAACAUCUUCGGAUGCAGAGGAGGCAGGCUUGGGUGGCGUGAUAGCGCCAACGUCCUCAACCUCCAAUGCAUCCCACCACAUGAUGAUGCCUGAAGAGCCUUGGUUUUUUG | -3.26
20 | GACAAAUCUGCCCUCAGAGCUCGAGAACAUCUUCGGAUGCAGAGGAGGCAGGCUUCGGCGGCGCGAUAUCGCCAACGUCCUCAACCUCCAAUGCAUCCCACCACAUGAUGAUGCUUGAAGAGCCUUGGUUUUUUG | -3.99
21 | GACGAAUCUGCCCUAUGAGCUCGAGAACAUCUUCGGAUGCAGAGGAGGCAGGAUUCGGUGGCGCGAUAGCGCCAACGCCCUCAACCUCCAAUGCAUCCCACCACAUGAUGAUGCUUGAAGAGCCUUGGUUUUUUG | -3.67

Row | Variant | polymerase ribozyme fitness (log ratio)
22 | GACGAAUCUGCCCUCAGAGCUCGAGAACAUCUUCGGAUGCAGAGGAGGCAGGCUUCGGUGGCGCGAUAGCGCAAACGUCCUCAACCUCCAUUGCAUCCCACCACAUGAUGAUGCCUGAAGAGCCUUGGUUUUUUG | -3.63
23 | GACGAAUCUGCACUAAGAGCUCGAGAACAUCUUCGGAUGCAGAGGAGGCAGGCUUCGGUGGCGCGAUAGCGCCAACGUCCUCAACCUCCAAUGAAUCCUACCACAUGAUCAUGCCUGAAGAGCCUUGGUUUUUUG | -6.59
24 | GACGAAUCUGCCCUCAGCGCUCGAGAACAUCUUCGGAUGCAGAGGAGGCAGGCUUCGGUGGCGCGAUAGCGCCAACGUCCUCAACCUCCAAUGCAUCCCACCACAUGAUGAUGCCUGAAGAGCCUUGGUUUUUUG | -3.16
25 | GACAAAUCUGCCCUCAGAGCUCGAGAACAUCUUCGGAUGCAGAGGAGGCAGGCUUCGGUGGCGCGAUAGCGCCAACGUCCUCAACCUCCAAUGCAUCCCACCACAUGAUGAAGCCUGAUGAGUCCUGGUUUUUUG | -0.636
26 | GACAAAGCUGCCCUCAGAGCUCGAGAACAUGUUCGGAUGCAGAGGAGGCAGGCUUCGGUGGCGCGAUAGGGCCAACGUCCUCAACUCCCAAUGCAUCCCACCACAUGAUGAAGCCUGAAGAGCCUUGGUUUUUUG | -5.92
27 | GACGAAUCUGCCCUCAGAGCUCGAGAACAUCUUCGGAUGCAGAGGAGGCAGGCUUCGGUGGCGCGAUAGCGCCAACGUCCUCAACCUCCAAUGCAUCCCACCACAUGAUGAUGCCUGAAGAGCCUUGGUUUUUUG | -1.33
28 | GACAAAUCUGCCCUCAGAGCUCGAGAACAUCUUCGGAUGCAGAGGAGGCAGGCUUCGGUGGCGCGAUAGCGCCAACGUCCUCAACCUCCAAUACAUCCCACCACAUGAUGAUGCCUGAAGAGCCUUGGUUUUUUG | -1.73
29 | GACGAAUGGGCCCUCAGAGCGCGAGAACAUCUUCGGAUGCAGAGGAGGCAGGCUUCGGUGGCGCGAUAGCGCCAACGUCCUCAACCUCCAAUGCAGCCCACCACAUGAUGUUGCCUGAAGAGCCUUGGUUUUUUG | -3.56
30 | GACGAAUCUGCCCUCAGAGCUCGAGAACAUCUUCGGAUGCAGAGGAGGCAGGCUUCGGUGGCGCGAUAGCGCCAACGUCCUCAACCUCCGAUGCAUCCCACCAUAUGAUGAUGCCUGAAGAGCCUUGGUUUUUUG | -0.701
31 | GACAAAUCUGCCCUCAGAGCUCGAGAACAUCUUCGGAUGCAGAGGAGGCAGGCUUCGGUGGCGCGAUAGCGCCAACGUCCUCAACCUCCAAUCCAUCCCACCACAUGAUGUUGCCUGAAGAGCCUUGGUUUUUUG | -4.69
32 | GACGCAUCUGCCCUCAGAGCUCGAGAACAUCUUCGGAUGCAGAGGAGGCAGGCUUCGGUGUCGCGAUAGCGCCAACGUCCUCACCCUCCAAUGCAUCCCACCACAUGAAGAUGCCUGAAGAGCCUUGGUUGUUUG | -5.51
33 | GACAAAUCUGCCCUCAGAGCUCGAGAACAUCUUCGGAUGCAGAGGAGGCAGGCUUCGGUGGCGCGAUAGCGCCAACGUCCUCAACCUCCAAUGCAUCCCACCACAUGAUGAUGCCUGAAGAGCCUUAGUUUUUUG | -1.82
34 | GACGAAUCUGCCCUCAGAGCUCGAGAACAUCUUCGGAUGCAGAGGAGGCAGGCUUCGGUGGCGCGAUAGCGCUAACGUCCUCAACCUCCAAUGCAUCCCACCACAUGAUGAUGCCUGAAGAGCCUUGGUUUUUUG | -1.69
35 | GACAAAUCUGCCCUCAGAGCUCGAGAACAUCUUCGGAUGCAGAGGAGGCAGGCUUCGGUGACGCGAUAGCGCCAACGUCCUCAACCUCCAAUGCAUCCCACCACAUGAUGAUGCCUGAAGAGCCUUAGUUUUUUG | -2.92
36 | GACGAAUCUGCCAUCAGAGCUCGAGAACAUCUUCGGAUGCAGAGGAGGCAGGCUUCGGUGGCGCGAUAGCGCCAACGUCCUCAACCUCAAAUGCAUCCCACCACAUGAUGAUGCCUGAAGAGCCUUGGUCUUUUG | -3.33
37 | GACGAAUCUGCCCUCAGAGCUCGCGAACAUCUUCGGAUGCAGAGGAGGCAGGCUUCGGUGGCGCGAUAGCGCCAACGUCCUCAACCUCCAAUGCAUCCCCCCACAUGAUGAAGCCGGAAGAGCCUUGGUUUUUUG | -5.42
38 | GACAAAUCUGCCCUCAGAGCUCGAGAACAUCUUCGGAUGCAGAGGAGGCAGGCUUCGGUGGCGCGAUAGCGCCAACGCCCUCAACCUCCAAUGCAUCCCACCACAUGAUGAUGCCUGAAGAGCCUUGGUUUUUUG | -1.45
39 | GACAAAUCUGCCCUCAGAGCUCGAGAACAUCUUCGGAUGCAGAGGAGGCAGGCUUCGGUGACGCGAUAGCGCCAACGACCUCAACCUCCAAUGCAUCCCACCACAUGAUGAUGCCUGAAGAGCCUUGUUUUUUUG | -1.35
40 | GACGAAUAUGCCCUCAGAGCUCGAGAACAUCUUCGGAUGCAGAGGAGGCAGGCUUCGGUGGCGCGAUAGCGCCAACGUCUUCAACCUCCAAUGCAUCCCACCACAUGAUGAUGCAUGAAAAGCCAUGGUUUUUUG | -2.71
41 | GACGAAUCUGUCUUCAGAGCUCGAGAACAUCUUCGGAUGCAGAGGAUGCAGGCUUCGGUGGCGCGAUAGCGGCAACGUCCUCAACCUCCAAUGCAUCCCACCACAUGAUGAUGCCUGAAGAGCCUUGGUUUUUUG | -5.03
42 | GACGAAUCUGCCUUCAGAGCUCGAGAACAUCUUCGGAUGCAGAGGAGGCAGGUUUCGGUGGCGCGAUAGCGCCAACGUCCUCAACCUCCAAUGCAUCCCACCACAUGAUGAUGCGUGAAGUGCCUUGGUUUUUUG | 0.995

— the RNAGym collection of RNA variant scans (doi:10.1073/pnas.2313332121)
